Positions count from the first letter of the chain named. Names may count otherwise. “And” between values parts separate entries of the source, which are not always exact repeats. Equal entries are not always repeated.
B1: RPA70N (RPA70 residues 1-120) (domain or fragment, human, UniProt P27694 1-120, looked up)
chain: MVGQLSEGAIAAIMQKGDTNIKPILQVINIRPITTGNSPPRYRLLMSDGLNTLSSFMLATQLNPLVEEEQLSSNCVCQIHRFIVNTLKDGRRVVILMELEVLKSAEAVGVKIGNPVPYNE
notes: RPA70 (replication protein A 70 kDa subunit), human, N-terminal domain, residues 1-120; pET15b construct; 15N-enriched for some NMR samples; also called RPA70_(1-120); RPA70N domain of RPA70; source: E. coli BL21 (DE3), purified (HisTrap, thrombin cleavage, Superdex 75)
B2: RPA70N^E7R (domain or fragment, human, UniProt P27694 1-120, looked up)
chain: B1 chain with E7R
notes: RPA70, human, N-terminal domain, residues 1-120, with E7R (variant optimised for crystallisation of complexes); source: E. coli BL21 (DE3), purified (HisTrap, thrombin cleavage, Superdex 75)
B3: PrimPol RPA-binding domain (PrimPol_(480-560)) (domain or fragment, human, UniProt Q96LW4 480-560, looked up)
chain: TTDEADETRSNETQNPHKPSPSRLSTGASADAVWDNGIDDAYFLEATEDAELAEAAENSLLSYNSEVDEIPDELIIEVLQE
notes: 15N-enriched for one NMR sample; also called PrimPolRBD; RBD; source: E. coli BL21(pLysS), purified (Ni Sepharose, Q Sepharose, Superdex 75)
B4: PrimPol RBD RBM-A knockout (D514R/D518R/D519R) (domain or fragment, human, UniProt Q96LW4 480-560, looked up)
chain: B3 chain with D35R, D39R, D40R
notes: PrimPol, human, RBD residues 480-560 with D514R, D518R, D519R; also called PrimPol_(A-KO); RBD_(A-KO); source: E. coli BL21(pLysS), purified (Ni Sepharose, Q Sepharose, gel filtration)
B5: PrimPol RBD RBM-B knockout (480-546 truncation) (domain or fragment, human, UniProt Q96LW4 480-546, looked up)
chain: TTDEADETRSNETQNPHKPSPSRLSTGASADAVWDNGIDDAYFLEATEDAELAEAAENSLLSYNSEV
notes: PrimPol, human, residues 480-546 (RBD without RBM-B); also called PrimPol_(B-KO); RBD_(B-KO); source: E. coli BL21(pLysS), purified (Ni Sepharose, Q Sepharose, gel filtration)
B6: PrimPol_(514-528) peptide (peptide, UniProt Q96LW4 514-528, looked up)
peptide: DNGIDDAYFLEATED
notes: PrimPol, human, residues 514-528 (RBM-A), 15-mer; also called RBM-A peptide residues (PrimPol_(514-528)); 15-mer PrimPol_(514-528) peptide; source: synthetic peptide (Genscript), used as supplied
B7: RBM-A peptide (RBM-A_(510-528)) (peptide, UniProt Q96LW4 510-528, looked up)
peptide: DAVWDNGIDDAYFLEATED
notes: source: synthetic peptide (GenScript), HPLC purified

Assays:
Conditions in all cases: both partners purified
[1] = target: B3; experiment: SEC; analytical gel filtration, Superdex S75 10/300 GL, 50 mM Tris-HCl pH 7.5, 100 mM NaCl, 2 mM TCEP; 0.5 ml loaded at 35 uM; binding read from a shift of the peaks
[2] = target: B3; experiment: SEC-MALS; Superdex 75 increase 10/300 GL, 20 mM HEPES pH 7.1, 80 mM NaCl, 0.5 mM TCEP; RBD at 185 uM with RPA70N E7R at 0, 1, 2 and 4 x molar ratios
RPA70N^E7R = target: B2; experiment: crystal structure; co-crystals by sitting-drop vapour diffusion at 293 K; RPA70N E7R with PrimPol 514-528 peptide (2.5:1 peptide:protein) or with PrimPol 480-560 (1:1)
[3] = target: B1; experiment: NMR titration; 15N-1H HSQC at 25 C; 100 uM 15N-enriched RPA70N or 15N-enriched PrimPol 480-560 alone and with 200 uM unlabelled partner; 20 mM HEPES pH 7.5, 80 mM NaCl, 2 mM DTT
[4] = target: B1; experiment: ITC; MicroCal VP-ITC; 400 uM PrimPol RBD (WT or variants) injected into 20 uM RPA70N; 20 mM HEPES pH 7.5, 80 mM NaCl, 3 mM beta-mercaptoethanol; single-site model

Binder: B1
- stoichiometry N [1]: 2 RPA70N per PrimPolRBD

Binder: B2
- stoichiometry N [2]: 1 RPA70N per PrimPolRBD and 2 RPA70N per PrimPolRBD

Binder: B3
- binding result (RPA70N^E7R): binds
- binding result [3]: binds

Binder: B4
- Kd [4]: 7.8 ± 0.6 µM

Binder: B5
- Kd [4]: 6.7 ± 1.5 µM

Binder: B6
- binding result (RPA70N^E7R): binds

Binder: B7
- binding result [3]: binds

From PMC5457501 (Nature Communications, 2017)
